Assay results: patent publication US20060281899A1, “Mutants of biotin binding protein” (priority 2002, published 2006)
Where “and” joins values, the source holds several entries; their conditions need not be identical. Identical values can stand only once.

B1: AVR1: Recombinant chicken avidin-related protein 1, produced in Sf9 insect cells (protein, UniProt O13153 25-150, looked up)
Avidin-related protein 1: ARKCSLTGKWDNDLGSIMTIGAVNDNGEFNGTYITAVADNPGNITRSPLLGIQHKRACQPTFGFTVHWNFSESTSVFVGQCFVDKSGKEVLKTKWLQRLAVDDISDDWKATRVGNNDFTRQRTVEE
B2: AVR2: Recombinant chicken avidin-related protein 2, produced in Sf9 insect cells (protein, UniProt P56732 25-150, looked up)
Avidin-related protein 2: ARKCSLTGEWDNDLGSIMTIGAVNDNGEFDGTYITAVADNPGNITLSPLLGIQHKRASQPTFGFTVHWNFSESTSVFVGQCFVDRSGKEVLKTKWLQRLAVDDISDDWIATRVGNNDFTRQHTVEE
B3: AVR6: Recombinant chicken avidin-related protein 6, produced in Sf9 insect cells (protein, UniProt P56735 25-150, looked up)
Avidin-related protein 6: ARKCSLTGEWDNNLGSIMTIGAVNDNGEFNGTYITAVADNPGNIKLSPLLGIQHKRACQPTFGFTVHWNFSESTSVFVGQCFVDRSGKEVLKTKWLQRLAVDDISDDWKATRVGYNNFTRQRTVEE
B4: AVR7: Recombinant chicken avidin-related protein 7, produced in Sf9 insect cells (protein, UniProt P56736 25-150, looked up)
Avidin-related protein 7: ARKCSLTGEWDNNLGSNMTIGAVNDNGEFNGTYITAVADNPGNIKLSPLLGIQHKRACQPTFGFTVHWNFSESTSVFVGQCFIDRSGKEVLKTKWLQRLAVDDISDDWKATRVGYNNFTRQRTVEE
B5: AVR4/5(N43E): AVR4/5 mutant, residue 43 changed to glutamate to avoid glycosylation (protein, UniProt P56734 25-150, looked up, variant N43E)
Avidin-related protein 4/5: ARKCSLTGKWTNNLGSIMTIRAVNSRGEFTGTYLTAVADNPGEITLSPLLGIQHKRASQPTFGFTVHWNFSESTTVFTGQCFIDRNGKEVLKTMWLLRSSVNDISYDWKATRVGYNNFTRLCTVEE
B6: AVR4/5 + 2-mercaptoethanol: AVR4/5 analyzed in the presence of 2-mercaptoethanol (0.4% v/v) (protein, UniProt P56734 25-150, looked up)
Avidin-related protein 4/5: ARKCSLTGKWTNNLGSIMTIRAVNSRGEFTGTYLTAVADNPGNITLSPLLGIQHKRASQPTFGFTVHWNFSESTTVFTGQCFIDRNGKEVLKTMWLLRSSVNDISYDWKATRVGYNNFTRLCTVEE
modifications: with 2-mercaptoethanol
B7: AVR3: Recombinant chicken avidin-related protein 3, produced in Sf9 insect cells (protein, UniProt P56733 25-150, looked up)
Avidin-related protein 3: ARKCSLTGKWTNNLGSIMTIRAVNSRGEFAGTYLTAVADNPGNIKLSPLLGIQHKRACQPTFGFTVHWNFSESTSVFVGQCFIDRSGKEVLKTKWLQRLAVDDISDDWKATRVGYNNFTRQRTVEE

Tests used:
[1] = IASyS optical biosensor, AVR binding in a biotin cuvette; conditions: for kass / kdiss: biotin cuvette (as for Kd of these proteins); for Kd: biotin cuvette, 20.0° C.
Method: The biotin-binding characteristics of the AVR proteins were studied as previously described using the IASyS optical biosensor (Marttila, A. T., Airenne, K. J., Laitinen, O. H., Kulik, T., Bayer, E. A ., Wilchek, M. and Kulomaa, M. S. (1998) FEBS Lett. 441, 313-317; Laitinen, O. H., Airenne, K. J., Marttila, A. T., Kulik, T., Porkka, E., Bayer, E. A., Wilchek, M. and Kulomaa, M. S. (1999) FEBS Lett. 461, 52-8). Affinities were measured for 2-iminobiotin or biotin at 20.0° C. using a stirring power of 100%. Briefly, the protein under study in biotin-free buffer was allowed to bind to the biotin-coated surface of the IASyS cuvette. As a negative control, the protein under study was saturated with excess biotin prior to (and was also maintained under biotin excess upon) addition to the cuvette. Under these conditions, residual binding to the biotin surface of the cuvette could be regarded as unspecific, and was used as a measure of baseline variation. Binding equilibrium in the experimental cuvette was considered to be attained after no binding was detected as compared to negative control.
The actual dissociation constants (Kd) were calculated for the AVRs according to the kass and kdiss rates measured in a separate assay in different protein concentrations (varying between 10 μM and 100 pM) (Table 4 and FIG. 6). The binding seemed to follow two-order or even more complex kinetics. However, the first 1000 seconds of the binding fitted considerably well to the bi-phasic curve. All measured dissociation rate constants (kdiss) followed the first-order kinetics. Because of the extremely high binding, affinities of the AVRs for biotin could not be determined except for AVR1, AVR2 and AVR7. Binding to 2-iminobiotin was determined only for AVR4/5, and it was similar to that of avidin. The lack of binding for the other AVRs was surprising, since most of them were purified using 2-iminobiotin agarose.

Isoelectric focusing = format: physicochemical
Method: (§1) The heat stability of the AVRs was studied by using an SDS-PAGE-based method (Bayer, E. A., Ehrlich-Rogozinski, S. and Wilchek, M. (1996) Electrophoresis 17, 1319-1324). In this method, each protein sample was divided into two fractions one of which was kept biotin-free and the other was supplemented with an excess of biotin. The samples were then mixed with denaturing SDS-PAGE sample buffer (containing β-mercaptoethanol) and incubated at a given temperature for 20 minutes. After heat treatment, the samples were subjected to SDS-PAGE and visualised by staining with Coomassie brilliant blue. The relative proportions of tetrameric and monomeric forms of the AVR proteins (with avidin as the control) were detected. A similar assay, with β-mercaptoethanol omitted from the sample buffer, was performed to examine the presence of intersubunit disulfide-bridges. Sensitivity to proteinase K was studied both in the absence and in the presence of biotin as described (Laitinen, O. H., Airenne, K. J., Marttila, A. T., Kulik, T., Porkka, E., Bayer, E. A., Wilchek, M. and Kulomaa, M. S. (1999) FEBS Lett. 461, 52-8). The isoelectric point of each AVR was determined by isoelectric focusing as previously reported (Marttila, A. T., Airenne, K. J., Laitinen, O. H., Kulik, T., Bayer, E. A., Wilchek, M. and Kulomaa, M. S. (1998) FEBS Lett. 441, 313-317). The glycosylation patterns of the AVR proteins were studied by treating the proteins with Endo Hf and PNGase F glycosidase according to the manufacturer's instructions (New England Biolabs, Mass., USA).

[2] = Non-reducing SDS-PAGE thermostability, oligomeric forms after boiling; format: physicochemical; conditions: boiled 20 minutes
Method: as §1

[3] = IASyS reversibility of biotin binding of avidin and AVRs; conditions: biotin cuvette, after addition of free biotin (0.17 mg/ml)
Method: The reversibility of biotin binding was studied as follows: Avidin and the AVRs were allowed to bind to a biotin-coated cuvette. After measuring the initial binding (A) as described above, biotin-saturated (0.17 mg/ml) buffer was injected into the cuvette and the amount of proteins remaining bound was measured until no dissociation was seen, again as compared to the negative control cuvette (B). The measurement time was at least 20 minutes. The percent reversibility was calculated as follows: reversibility (%)=100*(A−B)/A. A−B is the amount of liberated proteins after biotin adding.

[4] = IAsys reversibility of binding to biotin, AVR4/5 forms; conditions: biotin cuvette
Method: The biotin-binding characteristics of the different avidins were studied using an IAsys optical biosensor at 20° C. […] H., Hytönen, V. P., Ahlroth, M. K., Pentikäinen, O. T., Gallagher, C., Nordlund, H. R., Ovod, V., Marttila, A. T., Porkka, E., Heino, S., Johnson, M. S., Airenne, K. J. & Kulomaa, M. S. (2002) Biochem. J. 363, 609-617).

[5] = IAsys optical biosensor, AVR4/5 forms binding to 2-iminobiotin surface; conditions: for Kd: 20° C.
Method: The biotin-binding characteristics of the different avidins were studied using an IAsys optical biosensor at 20° C. The reversibility of binding and binding affinities to the 2-iminobiotin surface in 50 mM borate buffer (pH 9.5, 1 M NaCl) were measured as previously reported (Laitinen, O. H., Hytönen, V. P., Ahlroth, M. K., Pentikäinen, O. T., Gallagher, C., Nordlund, H. R., Ovod, V., Marttila, A. T., Porkka, E., Heino, S., Johnson, M. S., Airenne, K. J. & Kulomaa, M. S. (2002) Biochem. J. 363, 609-617).
Briefly, The 2-iminobiotin ligand was immobilized onto the carboxymethyldextran surface of a cuvette using N-hydroxysuccinimide activation. Binding of various concentrations of avidin or avidin mutants onto 2-iminobiotinylated surface were measured in a 50 mM borate buffer (pH 9.5) containing 1 M NaCl at 20° C. The iminobiotin cuvettes were regenerated with 20 mM HCl. The kinetic rate constants for association (kass) and dissociation (kdiss) were calculated using the Fast Fit program package (Affinity Sensors). The obtained rate constants were used to calculate Kd(rel) according to Kd=kdiss/kass. Equilibrium data obtained from measurements with different protein concentrations were used to calculate the dissociation constant Kd(eq).

[6] = Differential scanning calorimetry of avidin and AVR4/5 forms; format: physicochemical; conditions: for DSC Tm(−biotin): 50 mM sodium phosphate pH 7.0, 100 mM NaCl
Method: The thermodynamics of the heat-induced unfolding of the proteins were studied using DSC. The transition midpoint of heat-induced denaturation (Tm) of the avidin and different AVR4/5 forms was studied using a Nano II differential scanning calorimeter (Calorimetric Sciences Corporation, Provo, Utah, USA). The reference cell was filled with buffer whereas the sample cell was filled with proteins dissolved in 50 mM sodium phosphate buffer, pH 7.0 containing 100 mM NaCl. Avidin and AVR4/5(C124S) were also analyzed in 50 mM Na-acetate pH 4.0 containing 100 mM NaCl. Furthermore, AVR4/5 was analyzed in the presence of 2-mercaptoethanol (0.4% v/v). The samples (1.6-9.6 μM) were analyzed both in the absence and presence of a three fold molar excess of biotin/subunit. All samples were degassed before being loaded into the DSC. The thermograms were recorded as a function of temperature; between 25 and 130° C. at a rate of 55.6° C./h (Gonzalez, M., Argarana, C. E. & Fidelio, G. D. (1999) Biomol. Eng. 16, 67-72; Nordlund, H. R., Laitinen, O. H., Uotila, S. T., Nyholm, T., Hytönen, V. P., Slotte, J. P. & Kulomaa, M. S. (2003) J. Biol. Chem. 278, 2479-2483). Data was analyzed using Microcal Origin 6.0 and Cpcalc 2.1 (Applied Thermodynamics, Hunt Valley, Md.). The change in heat capacity upon unfolding (ΔCp) was measured for avidin and AVR4/5(C124S) using DSC data from measurements in pH 4.0 and 7.0. ΔCp was then obtained from the slope of ΔH vs. Tm (Liu, Y. & Sturtevant, J. M. (1996) Biochemistry 35, 3059-3062).

[7] = read-out: Kd calculated directly from the binding curves
[8] = read-out: Kd calculated from the equilibrium response data

Molecule	kass [1]	Kd [1, 8] [nM]	pI by isoelectric focusing (Isoelectric focusing)	Dimeric form, relative proportion [2] [percentage]	Monomeric form, relative proportion [2] [percentage]	Reversibility of biotin binding [3]	also measured
B1	(5.5 ± 1.5) × 10^4 M^−1 s^−1	100	≈ 7	40	40	18% and 18 ± 10%	kdiss [1]: (2.4 ± 0.8) × 10^−3 s^−1; Kd [1, 7]: 44 nM; Tetrameric form, relative proportion [2]: 20 percentage
B2	(1.8 ± 0.1) × 10^4 M^−1 s^−1	1700	≈ 5		100	94 ± 3%	kdiss [1]: (4.6 ± 1.1) × 10^−3 s^−1; Kd [1, 7]: 52 nM
B3		< 10	≈ 7	50	50	5 ± 3%	
B4	(1.8 ± 0.2) × 10^5 M^−1 s^−1	4.5	≈ 7	20	80	3 ± 3%	
B5							Reversibility of binding to biotin [4]: 3 ± 2%; kass [5]: (1.3 ± 0.3) × 10^4 M^−1s^−1; kdiss [5]: (1.8 ± 0.8) × 10^−3 s^−1; Kd ([5]; 50 mM borate pH 9.5, 1 M NaCl, read-out: Kd detected from the equilibrium response data): 110 nM; Kd ([5]; pH 9.5, 1 M NaCl, read-out: Kd detected directly from the binding curves): 140 nM; DSC Tm(−biotin) [6]: 104.9 ± 0.3 °C
B6							DSC Tm(−biotin) [6]: 106.5 ± 0.3 °C; ΔTm ([6]; change in Tm upon addition of a three-fold molar excess of biotin): 18.7 °C; ΔH of unfolding ([6]; sample without biotin): 169 ± 6.21 kcal/mol; DSC Tm (+biotin) ([6]; three-fold molar excess of biotin, pH 7.0): 125.2 ± 0.1 °C
B7		< 10	≈ 10	50	50	3 ± 2%	
